The text below walks through data of patent publication US20230279089A1 (GlaxoSmithKline, published 2023).

Assay [1] has as its target T1, Human BMP1-1 (human, UniProt P13497-2 121-730, limits assumed).
T1 sequence (looked up): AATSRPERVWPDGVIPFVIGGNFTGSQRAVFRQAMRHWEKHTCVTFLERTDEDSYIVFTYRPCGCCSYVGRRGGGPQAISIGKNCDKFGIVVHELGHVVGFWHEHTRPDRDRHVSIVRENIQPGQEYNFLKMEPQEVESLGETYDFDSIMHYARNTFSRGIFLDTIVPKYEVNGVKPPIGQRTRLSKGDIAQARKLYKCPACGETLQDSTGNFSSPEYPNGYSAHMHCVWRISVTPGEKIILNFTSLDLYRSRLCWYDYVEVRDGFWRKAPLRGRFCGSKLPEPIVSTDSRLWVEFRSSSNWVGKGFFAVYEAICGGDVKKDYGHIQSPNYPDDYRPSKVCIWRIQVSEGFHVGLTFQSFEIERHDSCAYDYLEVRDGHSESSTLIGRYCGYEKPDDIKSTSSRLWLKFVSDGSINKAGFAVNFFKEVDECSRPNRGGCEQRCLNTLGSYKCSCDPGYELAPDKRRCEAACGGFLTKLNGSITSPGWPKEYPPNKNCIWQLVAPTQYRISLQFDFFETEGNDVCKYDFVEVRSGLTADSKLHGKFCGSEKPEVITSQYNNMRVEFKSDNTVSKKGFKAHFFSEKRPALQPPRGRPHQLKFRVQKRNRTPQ
Nature of the assay: cell-based or functional assay.

In assay [2] the target is T2, Mouse BMP1-3: 126-707 (mouse, UniProt P98063 126-707).
T2 sequence (looked up): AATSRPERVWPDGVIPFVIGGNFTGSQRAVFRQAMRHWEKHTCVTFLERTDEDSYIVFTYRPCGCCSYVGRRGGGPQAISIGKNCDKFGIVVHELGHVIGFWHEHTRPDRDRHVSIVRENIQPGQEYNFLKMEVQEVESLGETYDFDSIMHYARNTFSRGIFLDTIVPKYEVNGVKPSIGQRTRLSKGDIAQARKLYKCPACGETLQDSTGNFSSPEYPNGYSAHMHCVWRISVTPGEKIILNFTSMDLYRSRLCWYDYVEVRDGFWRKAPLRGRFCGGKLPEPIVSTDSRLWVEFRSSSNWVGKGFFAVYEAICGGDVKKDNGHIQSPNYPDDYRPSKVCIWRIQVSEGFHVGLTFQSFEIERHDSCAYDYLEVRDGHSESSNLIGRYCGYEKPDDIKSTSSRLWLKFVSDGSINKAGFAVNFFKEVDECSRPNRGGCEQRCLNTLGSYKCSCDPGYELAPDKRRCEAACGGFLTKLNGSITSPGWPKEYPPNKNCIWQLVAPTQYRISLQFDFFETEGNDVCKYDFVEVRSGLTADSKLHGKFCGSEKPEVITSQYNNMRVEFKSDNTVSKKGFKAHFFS
Nature of the assay: cell-based or functional assay.

Assay [3] deals with T3, Human TLL2 CD+CUB1 truncated antigen (human, UniProt Q9Y6L7 150-463, limits assumed).
T3 construct: domain: CD+CUB1
T3 sequence (looked up): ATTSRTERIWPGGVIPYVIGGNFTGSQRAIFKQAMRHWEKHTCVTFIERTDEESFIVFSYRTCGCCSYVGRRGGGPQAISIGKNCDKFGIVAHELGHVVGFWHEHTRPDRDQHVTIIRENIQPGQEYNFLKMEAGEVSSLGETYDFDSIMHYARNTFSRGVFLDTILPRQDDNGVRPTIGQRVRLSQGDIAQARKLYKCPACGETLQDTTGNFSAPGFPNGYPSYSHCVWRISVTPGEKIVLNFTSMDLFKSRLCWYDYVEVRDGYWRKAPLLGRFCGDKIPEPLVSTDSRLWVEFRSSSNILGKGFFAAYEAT
Nature of the assay: SPR, captured mAb, HBS-EP. The method, then:
(§1) Both antibodies 13Y039-4B06-4334 and 13Y039-3E07-2944 and the reverse chimeric antibodies were evaluated for binding to human TLL2 CD+CUB1 and mouse BMP1 CD+CUB1 truncated antigens by SPR on a BIACORE T200. Protein A/G was immobilised to a CM5 sensor chip via amine coupling and the antibodies were captured to the protein A/G surface. The antigens were passed over the captured antibody at various concentrations. The measured affinities to human TLL2 CD+CUB1 are shown in Table 2 and the measured affinities to mouse BMP1 CD+CUB1 are shown in Table 3.
Background: Surface plasmon resonance follows binding to a sensor surface in real time, without labels.

Assay [4] deals with T4, Mouse BMP1 CD+CUB1 truncated antigen (mouse, UniProt P98063 126-439, limits assumed).
T4 construct: domain: CD+CUB1
T4 sequence (looked up): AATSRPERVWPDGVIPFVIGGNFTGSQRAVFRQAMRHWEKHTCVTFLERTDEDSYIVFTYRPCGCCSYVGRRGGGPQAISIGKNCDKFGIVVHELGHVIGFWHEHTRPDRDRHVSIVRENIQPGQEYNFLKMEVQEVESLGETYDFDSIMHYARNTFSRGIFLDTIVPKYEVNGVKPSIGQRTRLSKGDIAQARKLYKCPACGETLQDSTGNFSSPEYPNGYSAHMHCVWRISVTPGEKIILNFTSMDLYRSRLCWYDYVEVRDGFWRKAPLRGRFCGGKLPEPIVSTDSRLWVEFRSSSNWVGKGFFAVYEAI
Nature of the assay: SPR, captured mAb, HBS-EP. The method, then:
as §1

The target in assay [5] is T5, Human BMP1 CD+CUB1 truncated antigen (human, UniProt P13497 121-434, limits assumed).
T5 construct: domain: CD+CUB1
T5 sequence (looked up): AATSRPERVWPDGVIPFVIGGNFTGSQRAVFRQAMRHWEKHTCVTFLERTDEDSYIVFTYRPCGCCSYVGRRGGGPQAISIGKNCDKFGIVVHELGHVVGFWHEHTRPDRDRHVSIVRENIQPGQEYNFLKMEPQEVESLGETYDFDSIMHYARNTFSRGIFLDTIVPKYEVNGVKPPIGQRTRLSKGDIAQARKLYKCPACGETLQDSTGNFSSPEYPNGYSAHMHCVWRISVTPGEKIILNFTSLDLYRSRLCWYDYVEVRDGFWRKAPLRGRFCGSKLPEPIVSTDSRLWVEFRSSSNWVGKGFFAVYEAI
In words: SPR, captured mAb, enzyme dilution buffer.

Assay [6] has as its target T3, Human TLL2 CD+CUB1 truncated antigen. In words: SPR, captured mAb, HBS-EP. Here is the method:
as §1
The source holds these as a separate data set.

Assay [7] addresses T5, Human BMP1 CD+CUB1 truncated antigen. In words: SPR, captured mAb, HBS-EP.
Assay [8] has as its target T1, Human BMP1-1. In words: cell-based or functional assay. This is another data set of the same source.
For another assay, the target named is T6, Mouse TLL1 (mouse, UniProt Q62381 148-1013, limits assumed).
T6 sequence (looked up): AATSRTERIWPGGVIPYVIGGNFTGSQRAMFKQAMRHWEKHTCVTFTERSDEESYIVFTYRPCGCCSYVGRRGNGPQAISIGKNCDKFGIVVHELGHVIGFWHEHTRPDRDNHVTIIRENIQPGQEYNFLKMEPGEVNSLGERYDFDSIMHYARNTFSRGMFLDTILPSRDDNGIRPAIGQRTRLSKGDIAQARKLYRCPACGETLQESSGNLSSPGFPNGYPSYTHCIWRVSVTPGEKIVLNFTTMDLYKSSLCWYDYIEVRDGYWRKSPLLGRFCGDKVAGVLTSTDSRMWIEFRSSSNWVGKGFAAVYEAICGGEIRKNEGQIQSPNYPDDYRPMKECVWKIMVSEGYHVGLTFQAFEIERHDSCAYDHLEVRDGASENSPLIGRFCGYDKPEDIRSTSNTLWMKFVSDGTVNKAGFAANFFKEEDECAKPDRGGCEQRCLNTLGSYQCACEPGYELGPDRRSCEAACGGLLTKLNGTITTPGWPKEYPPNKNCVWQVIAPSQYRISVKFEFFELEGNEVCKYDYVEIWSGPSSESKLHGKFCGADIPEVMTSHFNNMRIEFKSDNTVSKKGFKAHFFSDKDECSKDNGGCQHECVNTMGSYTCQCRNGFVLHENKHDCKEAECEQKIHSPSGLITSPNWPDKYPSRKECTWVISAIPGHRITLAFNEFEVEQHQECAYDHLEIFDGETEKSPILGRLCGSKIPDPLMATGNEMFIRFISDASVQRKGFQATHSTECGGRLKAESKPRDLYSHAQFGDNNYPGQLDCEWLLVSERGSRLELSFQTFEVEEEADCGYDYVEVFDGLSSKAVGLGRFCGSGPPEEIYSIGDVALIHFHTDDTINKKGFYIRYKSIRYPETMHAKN
In words: cell-based or functional assay.

Assay [9] concerns the target T1, Human BMP1-1. In words: cell-based or functional assay. The source holds these as a separate data set.
The target in the next assay is T7, Cyno TLL1 (cyno, UniProt A0A1D5QYV0 148-1013 (rhesus entry)).
T7 sequence: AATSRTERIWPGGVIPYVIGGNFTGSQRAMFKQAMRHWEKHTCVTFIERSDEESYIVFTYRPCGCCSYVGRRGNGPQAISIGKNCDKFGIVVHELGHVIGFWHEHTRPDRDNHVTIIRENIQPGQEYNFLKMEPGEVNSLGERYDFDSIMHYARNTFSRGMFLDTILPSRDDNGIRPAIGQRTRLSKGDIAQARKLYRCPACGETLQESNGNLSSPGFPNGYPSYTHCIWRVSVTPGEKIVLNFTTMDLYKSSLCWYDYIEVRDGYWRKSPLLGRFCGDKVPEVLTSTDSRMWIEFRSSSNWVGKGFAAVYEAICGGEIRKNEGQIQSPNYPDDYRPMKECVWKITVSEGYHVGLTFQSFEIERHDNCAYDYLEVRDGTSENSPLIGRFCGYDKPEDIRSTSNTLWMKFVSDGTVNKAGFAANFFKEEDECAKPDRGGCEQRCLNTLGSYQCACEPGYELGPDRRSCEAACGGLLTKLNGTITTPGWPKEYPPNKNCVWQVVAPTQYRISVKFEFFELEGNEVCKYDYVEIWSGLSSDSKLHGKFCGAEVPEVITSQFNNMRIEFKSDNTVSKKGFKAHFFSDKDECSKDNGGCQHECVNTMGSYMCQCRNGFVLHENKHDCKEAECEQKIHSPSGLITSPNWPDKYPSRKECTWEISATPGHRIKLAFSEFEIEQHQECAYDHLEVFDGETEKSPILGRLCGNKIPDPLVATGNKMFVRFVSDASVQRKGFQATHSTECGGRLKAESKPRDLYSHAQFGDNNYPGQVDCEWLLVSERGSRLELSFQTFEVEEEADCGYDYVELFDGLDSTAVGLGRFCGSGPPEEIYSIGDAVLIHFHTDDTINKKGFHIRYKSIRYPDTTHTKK
Nature of the assay: cell-based or functional assay.

Assay [10] concerns the target T2, Mouse BMP1-3: 126-707. Nature of the assay: cell-based or functional assay. The source holds these as a separate data set.
The target of assay [11] is T5, Human BMP1 CD+CUB1 truncated antigen. Nature of the assay: SPR, mAb captured on protein A, HBS-EP. The method, then: The 16 lead panel antibodies expressed in HEK cells were evaluated for binding to a truncated version of human BMP containing the catalytic domain and truncated domain (Human BMP1 CD+CUB1 truncated antigen) by SPR using BIACORE T200. HBS-EP+ buffer was used and the experiment run at 25° C. Protein A was immobilised to a CM5 sensor chip via amine coupling. The lead panel antibodies were captured onto protein A surface. Human BMP1 CD+CUB1 was then passed over the captured antibodies at various concentrations.

Several values for one entry are separate records, joined by “and”; a condition that tells them apart may be missing. Identical values can stand only once. Like-named read-outs stand apart in the source and are kept apart here.

B1: 13Y039-4B06-4334 human variable region on mouse IgG2a LAGA Fc, mouse cKappa (Compound A) (antibody)
heavy: QVQLVQSGAEVKKPGASVKVSCKASGYTFLGYYMSWVRQAPGQGLEWMGWINPLSGETNYAQKFQGRVTMTRDTSISTAYMELSRLRSDDTAVYYCARDTGELDGMNWYFDLWGRGTLVTVSSAKTTAPSVYPLAPVCGDTTGSSVTLGCLVKGYFPEPVTLTWNSGSLSSGVHTFPAVLQSDLYTLSSSVTVTSSTWPSQSITCNVAHPASSTKVDKKIEPRGPTIKPCPPCKCPAPNLAGAPSVFIFPPKIKDVLMISLSPIVTCVVVDVSEDDPDVQISWFVNNVEVHTAQTQTHREDYNSTLRVVSALPIQHQDWMSGKEFKCKVNNKDLPAPIERTISKPKGSVRAPQVYVLPPPEEEMTKKQVTLTCMVTDFMPEDIYVEWTNNGKTELNYKNTEPVLDSDGSYFMYSKLRVEKKNWVERNSYSCSVVHEGLHNHHTTKSFSRTPGK
light: EIVLTQSPATLSLSPGERATLSCRASQSVSSYLAWYQQKPGQAPRLLIYDASNRATGIPARFSGSGSGTDFTLTISSLEPEDFAVYYCQQSDSWPPTFGGGTKVEIKRADAAPTVSIFPPSSEQLTSGGASVVCFLNNFYPKDINVKWKIDGSERQNGVLNSWTDQDSKDSTYSMSSTLTLTKDEYERHNSYTCEATHKTSTSPIVKSFNRNEC
notes: Reverse chimera; the printed variable regions are those of 4B06-4334; also called 13Y039-4B06-4334 reverse chimera mouse IgG2a LAGA; 13Y039-4B06-4334, mIgG2a LAGA
With B1, in the assay with Human BMP1-1 [1], the “pKi, app, FRET enzyme activity, Human BMP1” value came to 12.3. For the same molecule, the “pKi, app, FRET enzyme activity, Mouse BMP1” value with Mouse BMP1-3: 126-707 [2] came to 11.4. The equilibrium dissociation constant (Kd) was 3.55 nM in [3]; 0.82 nM and 1.98 nM in assay [4]; 0.04 nM in assay [5]; 3.54 nM in assay [6]; 2.33 nM in [7].

B2: 13Y039-8F02-2949 (antibody, human IgG1, kappa, V domains shown)
VH: QVQLVQSGAEVKKPGSSVKVSCKASGGTFSEWAISWVRQAPGQGLEWMGAIIPKFGTAEYAQKFQGRVTITADESTSTAYMELSSLRSEDTAVYYCARGAKYYYAEDYMDVWGKGTTVTVSS
VL: DIQMTQSPSSVSASVGDRVTITCRASQGISSWLAWYQQKPGKAPKLLIYAASSLQSGVPSRFSGSGSGTDFTLTISSLQPEDFATYYCQQALSLPYTFGGGTKVEIKR
notes: Fully human IgG1 LAGA, kappa; HEK expressed
In the case of B2, the figures for the “IC50 (read off the curve)” value with Human BMP1-1 [8] and with Mouse BMP1-3: 126-707 [10] were roughly 0.5 nM and roughly 0.06 nM, respectively. Further, the “IC50, FRET enzyme activity, 800 pM biotinylated mTLL-1” value with Mouse TLL1 was determined as 0.56 nM. Further, in the assay with Human BMP1-1 [9], the “IC50, FRET enzyme activity, 62.5 pM huBMP1” value turned out to be 0.06 nM. Moreover, the “IC50, FRET enzyme activity, 750 pM biotinylated cynoTLL-1” value with Cyno TLL1 was 0.02 nM. Besides, the Kd in assay [11] is 1.6 nM.

Usually Kd stands for the equilibrium constant for the complex coming apart.
